{"source": "IntAct's records for PubMed 32101751", "parents": {"B1": {"name": "Ubiquitin carboxyl-terminal hydrolase 15 (Homo sapiens), Q9Y4E8 (parent)", "chain": "MAEGGAADLDTQRSDIATLLKTSLRKGDTWYLVDSRWFKQWKKYVGFDSWDKYQMGDQNVYPGPIDNSGLLKDGDAQSLKEHLIDELDYILLPTEGWNKLVSWYTLMEGQEPIARKVVEQGMFVKHCKVEVYLTELKLCENGNMNNVVTRRFSKADTIDTIEKEIRKIFSIPDEKETRLWNKYMSNTFEPLNKPDSTIQDAGLYQGQVLVIEQKNEDGTWPRGPSTPKSPGASNFSTLPKISPSSLSNNYNNMNNRNVKNSNYCLPSYTAYKNYDYSEPGRNNEQPGLCGLSNLGNTCFMNSAIQCLSNTPPLTEYFLNDKYQEELNFDNPLGMRGEIAKSYAELIKQMWSGKFSYVTPRAFKTQVGRFAPQFSGYQQQDCQELLAFLLDGLHEDLNRIRKKPYIQLKDADGRPDKVVAEEAWENHLKRNDSIIVDIFHGLFKSTLVCPECAKISVTFDPFCYLTLPLPMKKERTLEVYLVRMDPLTKPMQYKVVVPKIGNILDLCTALSALSGIPADKMIVTDIYNHRFHRIFAMDENLSSIMERDDIYVFEININRTEDTEHVIIPVCLREKFRHSSYTHHTGSSLFGQPFLMAVPRNNTEDKLYNLLLLRMCRYVKISTETEETEGSLHCCKDQNINGNGPNGIHEEGSPSEMETDEPDDESSQDQELPSENENSQSEDSVGGDNDSENGLCTEDTCKGQLTGHKKRLFTFQFNNLGNTDINYIKDDTRHIRFDDRQLRLDERSFLALDWDPDLKKRYFDENAAEDFEKHESVEYKPPKKPFVKLKDCIELFTTKEKLGAEDPWYCPNCKEHQQATKKLDLWSLPPVLVVHLKRFSYSRYMRDKLDTLVDFPINDLDMSEFLINPNAGPCRYNLIAVSNHYGGMGGGHYTAFAKNKDDGKWYYFDDSSVSTASEDQIVSKAAYVLFYQRQDTFSGTGFFPLDRETKGASAATGIPLESDEDSNDNDNDIENENCMHTN", "partner": "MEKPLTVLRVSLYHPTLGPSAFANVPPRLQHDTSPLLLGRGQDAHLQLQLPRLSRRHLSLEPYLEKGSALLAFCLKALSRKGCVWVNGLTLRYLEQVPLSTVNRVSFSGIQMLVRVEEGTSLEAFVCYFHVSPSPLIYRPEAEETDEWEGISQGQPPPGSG"}}, "data": [{"variants_of": "B1", "conditions": "with tifab_human TIFAB", "values": [{"variant": "C298A", "effect of a mutation on the interaction": "decreasing interaction strength"}]}]}
